Consider one substance from article doi:10.1101/2021.10.14.464379.

Where “and” joins values, the source holds several entries; their conditions need not be identical. Identical values can stand only once.

For test [1], the target named is ZmBAM7-S (short form of corn BAM7), full-length recombinant protein (Zea mays). Description: SEC. (In general: SEC sorts molecules by how far they enter the pores of the column.)
Test [2] has the same target. Description: SAXS.

As a reminder, the stoichiometry N is the number of molecules, sites or subunits per partner or assembly. For “ZmBAM7-S (short form of corn BAM7), full-length recombinant protein (enzyme)”, the stoichiometry N in test [1] is 4 subunits and 6 subunits; in test [2], 4.
